B1: sp¦P10599¦THIO_HUMAN (protein, UniProt P10599 2-105, looked up)
Thioredoxin: VKQIESKTAFQEALDAAGDKLVVVDFSATWCGPCKMIKPFFHSLSEKYSNVIFLEVDVDDCQDVASECEVKCMPTFQFFKKGQKVGEFSGANKEKLEATINELV
B2: sp¦Q8WW12¦PCNP_HUMAN (protein, UniProt Q8WW12 2-178, looked up)
PEST proteolytic …: ADGKAGDEKPEKSQRAGAAGGPEEEAEKPVKTKTVSSSNGGESSSRSAEKRSAEEEAADLPTKPTKISKFGFAIGSQTTKKASAISIKLGSSKPKETVPTLAPKTLSVAAAFNEDEDSEPEEMPPEAKMRMKNIGRDTPTSAGPNSFNKGKHGFSDNQKLWERNIKSHLGNVHDQDN
B3: sp¦Q9BY43¦CHM4A_HUMAN (protein, UniProt Q9BY43 1-222, looked up)
Charged multivesicular body …: MSGLGRLFGKGKKEKGPTPEEAIQKLKETEKILIKKQEFLEQKIQQELQTAKKYGTKNKRAALQALRRKKRFEQQLAQTDGTLSTLEFQREAIENATTNAEVLRTMELAAQSMKKAYQDMDIDKVDELMTDITEQQEVAQQISDAISRPMGFGDDVDEDELLEELEELEQEELAQELLNVGDKEEEPSVKLPSVPSTHLPAGPAPKVDEDEEALKQLAEWVS
B4: sp¦P49458¦SRP09_HUMAN (protein, UniProt P49458 2-86, looked up)
Signal recognition particle 9 …: PQYQTWEEFSRAAEKLYLADPMKARVVLKYRHSDGNLCVKVTDDLVCLVYKTDQAQDVKKIEKFHSQLMRLMVAKEARNVTMETE
B5: sp¦P54727¦RD23B_HUMAN (protein, UniProt P54727 1-409, looked up)
UV excision repair protein …: MQVTLKTLQQQTFKIDIDPEETVKALKEKIESEKGKDAFPVAGQKLIYAGKILNDDTALKEYKIDEKNFVVVMVTKPKAVSTPAPATTQQSAPASTTAVTSSTTTTVAQAPTPVPALAPTSTPASITPASATASSEPAPASAAKQEKPAEKPAETPVATSPTATDSTSGDSSRSNLFEDATSALVTGQSYENMVTEIMSMGYEREQVIAALRASFNNPDRAVEYLLMGIPGDRESQAVVDPPQAASTGAPQSSAVAAAAATTTATTTTTSSGGHPLEFLRNQPQFQQMRQIIQQNPSLLPALLQQIGRENPQLLQQISQHQEHFIQMLNEPVQEAGGQGGGGGGGSGGIAEAGSGHMNYIQVTPQEKEAIERLKALGFPEGLVIQAYFACEKNENLAANFLLQQNFDED
B6: sp¦P52209¦6PGD_HUMAN (protein, UniProt P52209 1-483, looked up)
6-phosphogluconate …: MAQADIALIGLAVMGQNLILNMNDHGFVVCAFNRTVSKVDDFLANEAKGTKVVGAQSLKEMVSKLKKPRRIILLVKAGQAVDDFIEKLVPLLDTGDIIIDGGNSEYRDTTRRCRDLKAKGILFVGSGVSGGEEGARYGPSLMPGGNKEAWPHIKTIFQGIAAKVGTGEPCCDWVGDEGAGHFVKMVHNGIEYGDMQLICEAYHLMKDVLGMAQDEMAQAFEDWNKTELDSFLIEITANILKFQDTDGKHLLPKIRDSAGQKGTGKWTAISALEYGVPVTLIGEAVFARCLSSLKDERIQASKKLKGPQKFQFDGDKKSFLEDIRKALYASKIISYAQGFMLLRQAATEFGWTLNYGGIALMWRGGCIIRSVFLGKIKDAFDRNPELQNLLLDDFFKSAVENCQDSWRRAVSTGVQAGIPMPCFTTALSFYDGYRHEMLPASLIQAQRDYFGAHTYELLAKPGQFIHTNWTGHGGTVSSSSYNA
B7: sp¦O43396¦TXNL1_HUMAN (protein, UniProt O43396 2-289, looked up)
Thioredoxin-like protein 1: VGVKPVGSDPDFQPELSGAGSRLAVVKFTMRGCGPCLRIAPAFSSMSNKYPQAVFLEVDVHQCQGTAATNNISATPTFLFFRNKVRIDQYQGADAVGLEEKIKQHLENDPGSNEDTDIPKGYMDLMPFINKAGCECLNESDEHGFDNCLRKDTTFLESDCDEQLLITVAFNQPVKLYSMKFQGPDNGQGPKYVKIFINLPRSMDFEEAERSEPTQALELTEDDIKEDGIVPLRYVKFQNVNSVTIFVQSNQGEEETTRISYFTFIGTPVQATNMNDFKRVVGKKGESH
B8: sp¦O75937¦DNJC8_HUMAN (protein, UniProt O75937 2-253, looked up)
DnaJ homolog subfamily C …: AASGESGTSGGGGSTEEAFMTFYSEVKQIEKRDSVLTSKNQIERLTRPGSSYFNLNPFEVLQIDPEVTDEEIKKRFRQLSILVHPDKNQDDADRAQKAFEAVDKAYKLLLDQEQKKRALDVIQAGKEYVEHTVKERKKQLKKEGKPTIVEEDDPELFKQAVYKQTMKLFAELEIKRKEREAKEMHERKRQREEEIEAQEKAKREREWQKNFEESRDGRVDSWRNFQANTKGKKEKKNRTFLRPPKVKMEQRE
B9: sp¦Q9HB71¦CYBP_HUMAN (protein, UniProt Q9HB71 2-228, looked up)
Calcyclin-binding protein: ASEELQKDLEEVKVLLEKATRKRVRDALTAEKSKIETEIKNKMQQKSQKKAELLDNEKPAAVVAPITTGYTVKISNYGWDQSDKFVKIYITLTGVHQVPTENVQVHFTERSFDLLVKNLNGKSYSMIVNNLLKPISVEGSSKKVKTDTVLILCRKKVENTRWDYLTQVEKECKEKEKPSYDTETDPSEGLMNVLKKIYEDGDDDMKRTINKAWVESREKQAKGDTEF
B10: sp¦P04075¦ALDOA_HUMAN (protein, UniProt P04075 2-364, looked up)
Fructose-bisphosphate …: PYQYPALTPEQKKELSDIAHRIVAPGKGILAADESTGSIAKRLQSIGTENTEENRRFYRQLLLTADDRVNPCIGGVILFHETLYQKADDGRPFPQVIKSKGGVVGIKVDKGVVPLAGTNGETTTQGLDGLSERCAQYKKDGADFAKWRCVLKIGEHTPSALAIMENANVLARYASICQQNGIVPIVEPEILPDGDHDLKRCQYVTEKVLAAVYKALSDHHIYLEGTLLKPNMVTPGHACTQKFSHEEIAMATVTALRRTVPPAVTGITFLSGGQSEEEASINLNAINKCPLLKPWALTFSYGRALQASALKAWGGKKENLKAAQEEYVKRALANSLACQGKYTPSGQAGAAASESLFVSNHAY
B11: sp¦O75792¦RNH2A_HUMAN (protein, UniProt O75792 1-299, looked up)
Ribonuclease H2 subunit A: MDLSELERDNTGRCRLSSPVPAVCRKEPCVLGVDEAGRGPVLGPMVYAICYCPLPRLADLEALKVADSKTLLESERERLFAKMEDTDFVGWALDVLSPNLISTSMLGRVKYNLNSLSHDTATGLIQYALDQGVNVTQVFVDTVGMPETYQARLQQSFPGIEVTVKAKADALYPVVSAASICAKVARDQAVKKWQFVEKLQDLDTDYGSGYPNDPKTKAWLKEHVEPVFGFPQFVRFSWRTAQTILEKEAEDVIWEDSASENQEGLRKITSYFLNEGSQARPRSSHRYFLERGLESATSL
B12: sp¦P68104¦EF1A1_HUMAN (protein, UniProt P68104 2-462, looked up)
Elongation factor 1-alpha 1: GKEKTHINIVVIGHVDSGKSTTTGHLIYKCGGIDKRTIEKFEKEAAEMGKGSFKYAWVLDKLKAERERGITIDISLWKFETSKYYVTIIDAPGHRDFIKNMITGTSQADCAVLIVAAGVGEFEAGISKNGQTREHALLAYTLGVKQLIVGVNKMDSTEPPYSQKRYEEIVKEVSTYIKKIGYNPDTVAFVPISGWNGDNMLEPSANMPWFKGWKVTRKDGNASGTTLLEALDCILPPTRPTDKPLRLPLQDVYKIGGIGTVPVGRVETGVLKPGMVVTFAPVNVTTEVKSVEMHHEALSEALPGDNVGFNVKNVSVKDVRRGNVAGDSKNDPPMEAAGFTAQVIILNHPGQISAGYAPVLDCHTAHIACKFAELKEKIDRRSGKKLEDGPKFLKSGDAAIVDMVPGKPMCVESFSDYPPLGRFAVRDMRQTVAVGVIKAVDKKAAGAGKVTKSAQKAQKAK

Each molecule was assayed on human HL60 cells (assay: SWATH-MS proteomics, differential protein representation, akirin2 KO vs WT HL60 cells). Conditions: Over-represented in KO; KO vs WT HL60 cells.
Format: cell-based
Description: Total proteins were extracted from WT and akirin2 KO HL60 cells using the AllPrep DNA/RNA/Protein Mini Kit (Qiagen) and protein concentration was determined using the BCA Protein Assay with BSA (Sigma–Aldrich) as standard. Protein extracts (150 µg per sample, n=3 biological replicates) from each WT and KO cells were trypsin digested using the FASP Protein Digestion Kit (Expedeon Ltd., Abcam, Cambridge, U.K.) and sequencing grade trypsin (Promega, Madison, WI, U.S.A.) following manufacturer’s recommendations. The resulting peptides were finally desalted on to OMIX Pipette tips C18 (Agilent Technologies, Santa Clara, CA, U.S.A.), dried down and stored at −20 °C until mass spectrometry analysis. […] Three micrograms of each protein digest from the three biological replicates of WT and akirin2 KO HL60 cells were used for the generation of the reference spectral ion library as part of the SWATH-MS analysis.
Peptides were eluted in a 120-min gradient from 5 to 30% solvent B in solvent A followed by 15-min gradient from 30 to 60% solvent B in solvent A (solvent A: 0.1% formic acid in water, solvent B: 0.1% formic acid in acetonitrile) and directly injected into the mass spectrometer for analysis. For IDA experiments, the mass spectrometer was set to scanning full spectra (350–1400 m/z) using 250 ms accumulation time per spectrum, followed by up to 50 MS/MS scans (100–1500 m/z). Candidate ions with a charge state between +2 and +5 counts per second above a minimum threshold of 100 were isolated for fragmentation. One MS/MS spectrum was collected for 100 ms, before adding those precursor ions to the exclusion list for 15 s (mass spectrometer operated by Analyst TF 1.6, AB Sciex). Dynamic background subtraction was turned off. MS/MS analyses were recorded in high-sensitivity mode with rolling collision energy on and a collision energy spread of 5. For SWATH quantitative analysis, six independent samples (three replicates from WT and akirin2 KO HL60 cells, 5 µg each) were subjected to the cyclic DIA of mass spectra using the SWATH variable windows calculator (V 1.0, AB Sciex) and the SWATH acquisition method editor (AB Sciex), similar to established methods. […] For these experiments, a 50-ms survey scan (350–1400 m/z) was acquired at the beginning of each cycle, and SWATH–MS/MS spectra were collected from 100–1500 m/z for 70 ms at high-sensitivity mode, resulting in a cycle time of 3.6 s. Collision energy for each window was determined according to the calculation for a charge +2 ion-centered upon the window with a collision energy spread of 15. To create a spectral library of all the detectable peptides in the samples, the IDA MS raw files were combined and subjected to database search in unison using ProteinPilot software v. 5.0.1 (AB Sciex) with the Paragon algorithm. […] The detected protein threshold was set at 0.05. An independent false discovery rate (FDR) analysis, using the target–decoy approach provided by Protein Pilot (AB Sciex; https://sciex.com/products/software/proteinpilot-software), was used to assess the quality of identifications. Positive identifications were considered when identified proteins reached 1% of global FDR. […] Global normalization was performed according to the Total Area Sums (TAS) of all detected proteins in the samples. […] Heatmaps were prepared using the Heatmapper (http://www.heatmapper.ca/expression/) with average linkage and Euclidean distance measurement method.

Molecule	Fold Change	Log (Fold Change)
B1	1.394	0.1444
B2	1.373	0.1375
B3	1.396	0.1447
B4	1.349	0.1301
B5	1.363	0.1346
B6	1.367	0.1359
B7	1.348	0.1296
B8	1.352	0.1309

Same assay, conditions: SWATH-MS, akirin2 KO vs WT HL60 cells; over-represented in KO

Molecule	Fold Change	Log (Fold Change)
B9	1.407	0.1482
B10	1.436	0.1572
B11	1.47	0.1673
B12	1.443	0.1593

Source: paper PMC8298264, “Function of cofactor Akirin2 in the regulation of gene expression in model human neutrophil-like HL60 cells” (Bioscience Reports, 2021)
